Measured values published in patent publication US20190169261A1 (published 2019).

Tests used:
[1] = molecular target: T1, PRAME peptide on HLA-A*02:01 (human); experiment: killing
T1 peptide: SLLQHLIGL

[2] = molecular target: T2, PRAME peptide on HLA-A*02:01 (human); experiment: multimer staining
T2 peptide: VLDGLDVLL

B1: TCR T4.8-1-29 (TCR, V domains shown)
Valpha: EDQVTQSPEALRLQEGESSSLNCSYTVSGLRGLFWYRQDPGKGPEFLFTLYSAGEEKEKERLKATLTKKESFLHITAPKPEDSATYLCAVHSTAQAGTALIFGKGTTLSVSS
Vbeta: DSGVTQTPKHLITATGQRVTLRCSPRSGDLSVYWYQQSLDQGLQFLIQYYNGEERAKGNILERFSAQQFPDLHSELNLSSLELGDSALYFCASSTHRGQTNYGYTFGSGTRLTVV
B1: no recognition [1]; recognises [2].
